These results are taken from PMC5719442.

The target in assay [1] is AnPrx6, Prx6 (1-Cys peroxiredoxin) from Anabaena sp. strain PCC 7120 (Anabaena sp. PCC 7120). The assay is described as follows: SEC; analytical SEC at 0.1, 1 and 10 mg/ml protein, without or with 20 mM H2O2; BioRad Gel Filtration Standard. (In general: In gel filtration, larger molecules generally elute earlier.)
For assay [2] the target is unchanged. The assay is described as follows: SAXS; 1.6 mg/ml and 4.8 mg/ml protein; mass from Hen Egg White Lysozyme standard and from Porod volume.

What is called stoichiometry N is the number of molecules, sites or subunits per partner or assembly.

As for “AnPrx6, Prx6 (1-Cys peroxiredoxin) from Anabaena sp. strain PCC 7120 (enzyme)”, the stoichiometry N in assay [1] and in assay [2] was 2 each time.
